From the supplement of paper PMC10126150
± gives the standard deviation of the averaged measurements.

System: ATP
Experiment: switch fluorescence ratio, 500 uM ATP over buffer (Cy3 cluster intensity, sum of 5 cycles each) (fold (ratio)); higher = stronger signal-on switching upon ATP binding; sequences stand for … in TCGTCGGCAGCGTCAGATGTGTATAAGAGACAGTTTTTTTTTTTTTTTTTTTTTTTTT…TC
Conditions: aptamer strand: ATP DNA aptamer (quencher-CACCTGGGGGAGTATTGCGGAGGAAGG + anchor), 100 nM annealed; ATP concentration: 500 uM
Procedure, shortened: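 After annealing to 100 nM quencher-labelled ATP aptamer, Cy3-labelled switching-strand clusters on a modified Illumina MiSeq flow-cell were imaged in selection buffer. A second image followed after 15 min with 500 uM ATP at 22 °C, and five such buffer/ATP cycles were done, each separated by NaOH stripping and re-annealing. The fluorescence ratio, averaged per switch-domain sequence, is summed target-cycle over summed buffer-cycle Cy3 intensity per cluster, with clusters outside 100-1000 RFU excluded.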
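Note: ATP exposure 15 min at 22 °C before imaging.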

Sequence | switch fluorescence ratio
GAGCTAGGAT | 0.985 ± 0.018
GAGCTGGCGG | 1.05 ± 0.038
GAGCTTACTT | 1.104 ± 0.011
GAGCTTCTGT | 1 ± 0.04
GAGCTTGAGT | 0.984 ± 0.011
GAGCTTTTTT | 0.9986 ± 0.0034
GAGGAAACAG | 1.022 ± 0.0067
GAGGAACCTG | 1.09 ± 0.0052
GAGGAAGGGA | 1.01 ± 0.017
GAGGAAGTTT | 1 ± 0.041
GAGGAATGAG | 0.9878 ± 0.005
GAGGAATTGG | 0.979 ± 0.012
GAGGACATGC | 0.979 ± 0.11
GAGGAGGGGG | 0.986 ± 0.032
GAGGAGGTAT | 0.973 ± 0.019
GAGGAGTGAA | 0.9973 ± 0.0067
GAGGATATAG | 1.03 ± 0.061
GAGGATATGG | 0.98 ± 0.021
GAGGATGTCT | 0.99 ± 0.021
GAGGATTAGA | 0.988 ± 0.015
GAGGATTCGG | 0.986 ± 0.026
GAGGCAGGGT | 1.033 ± 0.0064
GAGGCATCTC | 1.02 ± 0.025
GAGGCCTTGG | 0.983 ± 0.04
GAGGCGGACT | 1.02 ± 0.015

Sequence | switch fluorescence ratio
GAGGCGGATT | 1.01 ± 0.026
GAGGCTAGTG | 0.988 ± 0.0092
GAGGCTGGGG | 1 ± 0.038
GAGGGAAAAA | 1.44 ± 0.88
GAGGGAAGGT | 1.02 ± 0.02
GAGGGAAGTT | 1.04 ± 0.037
GAGGGACGGC | 0.999 ± 0.059
GAGGGAGATT | 1.02 ± 0.05
GAGGGAGCAG | 1.01 ± 0.017
GAGGGAGGCT | 1.04 ± 0.015
GAGGGAGGTC | 0.968 ± 0.043
GAGGGAGTAT | 0.9959 ± 0.0027
GAGGGATAAA | 1.003 ± 0.0018
GAGGGATCAG | 0.994 ± 0.011
GAGGGATGGT | 1.01 ± 0.029
GAGGGATTTG | 1 ± 0.03
GAGGGCACAT | 1.03 ± 0.05
GAGGGCAGGG | 0.978 ± 0.034
GAGGGCCATT | 0.978 ± 0.017
GAGGGCCGGT | 1.03 ± 0.032
GAGGGCTCTT | 1.05 ± 0.029
GAGGGGAAGG | 0.958 ± 0.057
GAGGGGACGA | 0.998 ± 0.011
GAGGGGACGG | 0.996 ± 0.015
GAGGGGAGTG | 1.03 ± 0.064

Sequence | switch fluorescence ratio
GAGGGGCATG | 1.01 ± 0.032
GAGGGGCTAA | 0.9516 ± 0.0088
GAGGGGCTTC | 1 ± 0.016
GAGGGGGAGG | 0.982 ± 0.019
GAGGGGGATT | 0.991 ± 0.028
GAGGGGGCTC | 1.04 ± 0.028
GAGGGGGGCC | 1.01 ± 0.06
GAGGGGGGTA | 0.989 ± 0.02
GAGGGGTATG | 1 ± 0.019
GAGGGGTGAG | 1.01 ± 0.041
GAGGGGTGGA | 0.996 ± 0.015
GAGGGGTGTA | 0.9896 ± 0.0085
GAGGGGTTGA | 1.01 ± 0.077
GAGGGTAGGT | 1.06 ± 0.063
GAGGGTAGTC | 1.004 ± 0.007
GAGGGTATGG | 1.014 ± 0.0075
GAGGGTCCGG | 0.991 ± 0.035
GAGGGTTAAT | 1.02 ± 0.02
GAGGGTTTTT | 1 ± 0.021
GAGGTAAGAT | 1.02 ± 0.032
GAGGTACAAA | 1.013 ± 0.01
GAGGTACGGG | 0.98966 ± 0.00039
GAGGTACTAG | 1.02 ± 0.0023
GAGGTCGCGC | 1.01 ± 0.043
GAGGTGTCG | 1.04 ± 0.041

Sequence | switch fluorescence ratio
GAGGTTAGAG | 0.9796 ± 0.0026
GAGGTTAGGA | 1 ± 0.012
GAGGTTCATT | 1.09 ± 0.085
GAGGTTGATC | 0.983 ± 0.056
GAGGTTGTAG | 0.994 ± 0.021
GAGGTTTCAC | 0.965 ± 0.023
GAGGTTTCGT | 0.988 ± 0.02
GAGGTTTCTA | 0.993 ± 0.038
GAGTAACCTG | 1.01 ± 0.071
GAGTAAGCAA | 1.64 ± 0.084
GAGTACGCTA | 3.07 ± 1.2
GAGTACTCCT | 1.04 ± 0.04
GAGTACTCGT | 1.03 ± 0.034
GAGTAGCGGA | 0.999 ± 0.042
GAGTATAGAT | 1.001 ± 0.0034
GAGTATGGGT | 1 ± 0.021
GAGTCAATAG | 2.98 ± 0.047
GAGTCACAGT | 1 ± 0.057
GAGTCAGAAT | 1.01 ± 0.013
GAGTCATGTG | 1.01 ± 0.037
GAGTCCATGG | 0.985 ± 0.013
GAGTCGGCGG | 0.9893 ± 0.0023
GAGTCGGGGG | 0.985 ± 0.01
GAGTCGGGGT | 1.01 ± 0.027
GAGTGAGGGC | 0.9957 ± 0.003

Sequence | switch fluorescence ratio
GAGTGAGTAC | 1 ± 0.055
GAGTGAGTAT | 0.9731 ± 0.0071
GAGTGATTTA | 1.01 ± 0.035
GAGTGCCTGG | 1.02 ± 0.012
GAGTGCTTAA | 0.971 ± 0.022
GAGTGGCTCT | 0.968 ± 0.026
GAGTGGGAGG | 1.02 ± 0.026
GAGTGGGCCT | 0.963 ± 0.044
GAGTGGTCAG | 0.9638 ± 0.0077
GAGTGTATTT | 1.02 ± 0.016
GAGTTAAAAG | 1.01 ± 0.02
GAGTTAGTAA | 0.999 ± 0.045
GAGTTAGTTA | 0.989 ± 0.028
GAGTTATGTA | 0.997 ± 0.016
GAGTTGAGGA | 0.98 ± 0.014
GAGTTGGGGG | 1.02 ± 0.012
GAGTTTATGT | 1.01 ± 0.022
GAGTTTATTA | 0.994 ± 0.021
GAGTTTGGTG | 0.94 ± 0.033
GAGTTTGTAT | 0.961 ± 0.028
GAGTTTTGGT | 1.03 ± 0.019
GATAAAAATA | 0.998 ± 0.018
GATAAAGACG | 0.9893 ± 0.0059
GATAACGTTT | 0.99 ± 0.017
GATAAGAGCC | 1.008 ± 0.0024

Sequence | switch fluorescence ratio
GATAAGGGGT | 0.981 ± 0.035
GATAATAGGT | 0.993 ± 0.016
GATAATGGTA | 1.008 ± 0.005
GATAATTGGT | 0.998 ± 0.012
GATAATTTTG | 0.989 ± 0.027
GATACATTGC | 1.07 ± 0.029
GATACTCGCG | 1.03 ± 0.0056
GATACTGTGA | 0.995 ± 0.023
GATACTTCTA | 0.972 ± 0.026
GATAGAAAGA | 0.964 ± 0.025
GATAGACGAG | 1.03 ± 0.043
GATAGACGGA | 0.99171 ± 0.00018
GATAGACTCT | 0.975 ± 0.029
GATAGAGCAT | 1.01 ± 0.013
GATAGATAGA | 0.9957 ± 0.002
GATAGATTAG | 0.998 ± 0.0038
GATAGCAGCG | 1.01 ± 0.064
GATAGCTCTG | 1.02 ± 0.021
GATAGCTGGT | 0.981 ± 0.025
GATAGCTTAG | 0.9935 ± 0.0071
GATAGGGGCT | 0.938 ± 0.042
GATAGGGGGA | 0.984 ± 0.058
GATAGGTAAG | 0.962 ± 0.025
GATAGGTTGT | 1.02 ± 0.035
GATAGTAGC | 0.978 ± 0.024

Sequence | switch fluorescence ratio
GATAGTCTTG | 0.985 ± 0.023
GATAGTGGTT | 1.022 ± 0.0078
GATAGTGTAG | 1.03 ± 0.0034
GATAGTTGGG | 0.988 ± 0.02
GATATAAGCT | 1.05 ± 0.066
GATATAGAGG | 0.986 ± 0.055
GATATAGCTC | 0.999 ± 0.038
GATATAGGGT | 0.983 ± 0.018
GATATATAGA | 0.998 ± 0.032
GATATATTCG | 1 ± 0.016
GATATCCGTT | 0.976 ± 0.016
GATATCTCCT | 1.09 ± 0.011
GATATGCTGG | 0.987 ± 0.018
GATATGGATG | 0.96 ± 0.032
GATATGGGTG | 1.04 ± 0.049
GATATGTGGT | 0.9989 ± 0.004
GATATTCTTT | 0.988 ± 0.018
GATATTGAGT | 0.9648 ± 0.0073
GATATTGCTA | 0.975 ± 0.03
GATATTGGCG | 0.956 ± 0.013
GATATTGTAG | 0.986 ± 0.026
GATATTTAAG | 0.988 ± 0.042
GATATTTTGA | 1.02 ± 0.019
GATATTTTTC | 1.035 ± 0.0096
GATCAAACGG | 1 ± 0.036

Sequence | switch fluorescence ratio
GATCAATTAA | 0.9942 ± 0.007
GATCAGAGGA | 1.05 ± 0.039
GATCATAATG | 1.01 ± 0.021
GATCATGCGG | 0.9854 ± 0.0089
GATCCGGGTG | 1.38 ± 0.45
GATCCTGAAC | 1.37 ± 0.12
GATCGCTAGG | 0.984 ± 0.035
GATCGCTCGG | 1.01 ± 0.02
GATCGGCGTG | 1 ± 0.015
GATCGGGACT | 0.9826 ± 0.0047
GATCGGGCTA | 0.9664 ± 0.0014
GATCGGGCTG | 0.903 ± 0.051
GATCGTATGT | 0.9838 ± 0.0013
GATCGTTGGT | 0.991 ± 0.021
GATCGTTTGT | 1.01 ± 0.021
GATCTACCCA | 1.028 ± 0.0089
GATCTACTTG | 0.995 ± 0.017
GATCTGGTTT | 0.998 ± 0.056
GATCTGTGCG | 0.972 ± 0.032
GATCTTATCG | 0.984 ± 0.026
GATCTTATTC | 0.98506 ± 0.00068
GATGAAAAAT | 0.975 ± 0.024
GATGAAGAAA | 1.025 ± 0.0026
GATGAATCGG | 0.973 ± 0.012
GATGAGAGGG | 1.002 ± 0.0059
